Measurements taken from the supplement of paper PMC10567573.

B1: ZNF511 (parent)
chain: EPLPVERDPAAGAAPFRFVARPVR

Variants of: B1
Test: protein stability index of a GFP-peptide fusion (GPS, HEK-293T) (PSI 1-6); higher = more stable
Settings: c terminus: a fixed tail appended
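Also: lentivirally expressed fusions sorted by FACS into six bins by GFP to DsRed ratio, PSI derived from sequencing read proportions per bin multiplied by bin number.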

Protein stability index, by site and new letter:
A14: P 2.52 | Y 1.96 | M 2.42 | G 2.55 | I 1.31 | C 2.2 | R 2.68 | N 2.69 | E 4.11 | W 2.47 | H 2.53 | L 2.44 | S 3.27 | K 3.16 | Q 2.91 | V 1.51 | D 4.71 | T 2.29
L3: R 3.45 | S 3.09 | T 2.3 | N 2.76 | G 2.23 | W 2.64 | Y 2.26 | E 2.97 | D 2.1 | C 2.16 | A 2.46 | K 2.4 | F 2.01 | Q 2.64 | I 2.45 | H 2.56 | V 2.23 | M 2.28
F16: D 5.52 | E 5.25 | C 4.08 | W 2.46 | K 4.67 | V 4.62 | R 5.16 | I 4.73 | S 4.88 | H 4.75 | P 5.26 | T 4.52 | A 4.67 | Q 5.34 | Y 3.82 | M 3.69 | G 5.43 | L 4.06 | N 4.86
E6: T 2.6 | Y 2.03 | N 2.5 | A 2.92 | F 3.14 | G 2.08 | K 1.99 | W 1.56 | Q 2.52 | D 1.68 | L 2.98 | P 3 | M 2.52 | I 2.34 | C 3.25 | S 1.96 | R 3.13 | V 3.22 | H 2.44
V19: C 3.22 | D 4.67 | A 4.47
G12: N 2.27 | H 2.64 | R 2.33 | W 1.67 | F 2.01 | L 2.4 | V 1.92 | M 2.38 | Q 2.55 | K 2.52 | S 2.02 | D 2.65 | P 1.76 | E 2.09 | T 1.64 | I 1.46 | Y 1.96 | A 2.06 | C 2.79
P2: T 2.1 | H 2.12 | M 2.3 | S 2.84 | C 2.08 | R 2.36 | N 1.99 | Q 1.94 | D 2.55 | W 1.8 | F 1.72 | L 2.37 | G 2.75 | Y 2.45 | I 2.12 | K 2.06 | V 2.03 | A 2.66 | E 2.23
A11: G 1.83 | T 2.08 | D 2.33 | V 1.42 | I 3.02 | N 1.75 | Y 1.88 | R 1.78 | E 3 | W 1.98 | H 2.61 | K 2.34 | C 2.18 | S 2.43 | Q 2.12 | F 2.02 | L 1.86 | M 1.71 | P 2.68
A10: H 1.87 | W 1.43 | K 1.72 | F 1.64 | I 2.44 | M 2.11 | C 1.88 | Y 2.97 | T 2.15 | L 2.71 | R 2.55 | D 2.46 | Q 2.11 | V 1.38 | N 3.07 | E 2.99 | P 2.41 | G 2.17 | S 2.23
A13: N 2.58 | Y 2.02 | E 2.62 | C 2 | K 2.71 | H 2.43 | Q 2.6 | S 3.04 | R 2.34 | M 3.42 | P 2.37 | I 1.66 | G 2.48 | T 2.5 | D 3.26 | F 1.94 | W 1.77
P4: T 2.8 | R 3.23 | C 1.91 | Q 1.99 | H 2.14 | W 1.58 | N 2.29 | G 2.63 | D 2.9 | E 2.43 | M 2.66 | S 3.43 | V 2.49 | A 2.88 | Y 1.64 | I 2.9 | F 2.52 | L 2.27 | K 2.09
E1: K 2.06 | Q 2.9 | P 2.23 | N 2 | G 1.85 | M 2.38 | R 2.39 | L 2.69 | I 2.12 | S 2.13 | H 2.2 | T 2.44 | V 2.27 | Y 1.77 | W 2.35
V5: W 2.64 | M 2.71 | T 1.83 | L 2.23 | Q 2.37 | S 2.56 | F 2.12 | N 2.82 | C 2.39 | A 2.18 | D 2.54 | E 2.17 | I 2.46 | K 1.77 | R 2.85 | H 1.96 | P 2 | Y 2.1
R17: V 4.21 | W 3.4 | K 4.42 | M 3.88 | N 3.45 | I 3.6 | L 3.64 | Y 2.98 | S 3.87 | C 3.88 | Q 4.65 | A 2.96 | H 4.17 | E 4.94 | G 4.86 | P 4.88 | F 2.56 | D 4.13 | T 4.19
D8: F 2.57 | S 2.36 | M 2.46 | I 2.91 | G 1.91 | H 2.25 | C 2.37 | V 2.4 | T 2.99 | A 2.26 | E 2.13 | Q 2.12 | W 1.91 | P 2.4 | R 2.21 | Y 2.63 | N 3.17 | L 2.22
P15: Q 3.78 | A 3.76 | K 4.09 | G 3.84 | E 3.04 | S 4.09 | W 2.32 | N 3.64 | L 3.68 | D 4.21 | V 3.12 | F 3.23 | H 4.05 | C 3.77 | R 3.78 | M 3.73 | T 3.94 | I 3.22
R7: W 1.05 | Q 2.65 | E 3.03 | H 2.57 | A 2.25 | K 2.12 | G 2.1 | V 2.42 | D 2.9 | L 2.82 | C 2.06 | Y 1.75 | M 2.09 | I 2.91 | S 2.34 | F 2.1 | N 2.32 | T 3 | P 2.22
F18: W 4.43 | Q 4.79 | D 4.97 | M 4.6 | L 4.49 | T 4.86 | I 4.71 | E 5.37 | K 4.87 | H 4.71 | R 4.91 | G 5.14 | V 4.6 | S 5.18 | A 4.83 | P 5.01 | Y 4.32 | C 4.59 | N 4.99
P9: I 2.34 | E 2.2 | T 2.74 | V 1.92 | Y 2.12 | G 1.96 | N 2.24 | D 2.38 | W 1.33 | R 1.54 | F 2.17 | M 2.73 | K 1.46 | A 1.72 | C 2.34 | S 2.08 | Q 1.98 | H 2.59 | L 2.42
